Test results as given in the supplement of paper PMC7125110.
± gives the standard error. For some of these results: Fewer inactive variants are shown than the library holds.

B1: glmS ribozyme (parent)
chain: AUAAAAGCGCCAGAACUACAGAAAUGUAGUUGACGAGGAGGAGGUUUAUCGAAUUUUCGGCGGAUGCCUCCAAA

Key:
Conditions in all cases: with glucosamine-6-phosphate
[1] = variants of: B1; experiment: kcat; higher = faster cleavage; RNA array
Procedure, shortened: (§1)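 The measurements used barcoded ribozyme variants on sequenced MiSeq chips, transcribed in situ by E. coli RNA polymerase and tracked at 37 °C with a hybridised Cy3 probe. Glucosamine-6-phosphate, 40 μM to 10 mM in HEPES/KCl/Mg(OAc)2 buffer, was flowed in while tiles were imaged over ~14 h. Baseline-normalised signals, also normalised to non-cleaving reference variants, gave per-tile medians that were fit to one- or two-exponential decays for kobs. kcat and KM resulted from weighted Michaelis–Menten fits across concentrations.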

[2] = variants of: B1; experiment: self-cleavage kobs at 640 uM GlcN6P; higher = faster cleavage; RNA array
Procedure, shortened: as §1

[3] = variants of: B1; experiment: self-cleavage kobs at 2500 uM GlcN6P; higher = faster cleavage; RNA array
Procedure, shortened: as §1

[4] = variants of: B1; experiment: self-cleavage kobs at 10000 uM GlcN6P; higher = faster cleavage; RNA array
Procedure, shortened: as §1

[5] = variants of: B1; experiment: KM; higher = weaker cofactor use; RNA array
Procedure, shortened: as §1

[6] = variants of: B1; experiment: self-cleavage kobs at 40 uM GlcN6P; higher = faster cleavage; RNA array
Procedure, shortened: as §1

[7] = variants of: B1; experiment: self-cleavage kobs at 160 uM GlcN6P; higher = faster cleavage; RNA array
Procedure, shortened: as §1

| Variant | kcat [1] [s⁻¹] | self-cleavage kobs at 640 uM GlcN6P [2] [s⁻¹] | self-cleavage kobs at 2500 uM GlcN6P [3] [s⁻¹] | self-cleavage kobs at 10000 uM GlcN6P [4] [s⁻¹] | KM [5] [µM] | self-cleavage kobs at 40 uM GlcN6P [6] [s⁻¹] | self-cleavage kobs at 160 uM GlcN6P [7] [s⁻¹] |
| --- | --- | --- | --- | --- | --- | --- | --- |
| G29U G40C | 0.000254 ± 6.3e-05 | 0.000105 ± 2.4e-05 | 0.000138 ± 3.6e-05 | 0.000281 ± 5.2e-05 | – | – | – |
| A14G | 0.0996 ± 0.0091 | 0.0249 ± 0.0012 | 0.0558 ± 0.0042 | 0.0902 ± 0.0048 | 1720 ± 180 | 0.00231 ± 4.7e-05 | 0.00764 ± 0.00054 |
| U56A C71A | 0.00492 ± 0.0022 | 0.000881 ± 0.0001 | 0.00216 ± 0.00042 | 0.00398 ± 0.00071 | – | 9.35e-05 ± 1.1e-05 | 0.000174 ± 3.4e-05 |
| A48C A53G | 0.000334 ± 1.5e-05 | 7.49e-05 ± 1.2e-05 | 0.000187 ± 2.9e-05 | 0.000272 ± 3.6e-05 | 2130 ± 190 | – | – |
| A14G U57C | 0.000646 ± 0.00012 | 0.000142 ± 1.8e-05 | 0.000276 ± 4.7e-05 | 0.000577 ± 0.0001 | 2530 ± 740 | – | 3.29e-05 ± 1.4e-05 |
| A33U C71G | 1.4e-05 ± 2.4e-06 | – | – | 1.47e-05 ± 7.1e-06 | – | – | – |
| A12G A53C | 0.000173 ± 3.8e-05 | 5e-05 ± 6.8e-06 | 7.64e-05 ± 8.5e-06 | 0.000157 ± 1.5e-05 | 2220 ± 1100 | – | – |
| A14U C67U | 0.00362 ± 0.00099 | 0.000591 ± 7.1e-05 | 0.00164 ± 0.00034 | 0.0031 ± 0.00053 | 2860 ± 930 | 6.23e-05 ± 7e-06 | 0.000181 ± 2e-05 |
| G40C U49G | 6.75e-05 ± 1.8e-05 | – | 5.43e-05 ± 1.5e-05 | 5.5e-05 ± 1.3e-05 | – | < 1e-05 | – |
| G13U C67A | 0.000419 ± 9e-05 | 9.71e-05 ± 9.5e-06 | 0.000225 ± 2.3e-05 | 0.000504 ± 0.00015 | 2040 ± 670 | – | 3.99e-05 ± 9e-06 |
| G13C G43U C67A | 6.76e-05 ± 3.4e-05 | – | – | – | – | – | – |
| G9A C16A | < 1e-05 | – | – | – | 31.6 ± 7.6 | – | – |
| A15G A52U | 0.000384 ± 8.3e-05 | 3.21e-05 ± 7.2e-06 | 0.000147 ± 1.6e-05 | 0.00024 ± 2.3e-05 | 5400 ± 2000 | – | – |
| A15G A52G | 0.00182 ± 0.00044 | 0.000293 ± 3.7e-05 | 0.000596 ± 8.6e-05 | 0.0015 ± 0.00019 | 3750 ± 1400 | – | 8.59e-05 ± 2.3e-05 |
| G63A C71G | 2.96e-05 ± 9.4e-06 | – | – | – | – | < 1e-05 | – |
| U65A C71U | 0.00196 ± 0.00076 | 0.00117 ± 0.00012 | 0.0011 ± 0.0002 | 0.00301 ± 0.00053 | – | 0.000139 ± 2.2e-05 | 0.000277 ± 4.1e-05 |
| A33C U46G | 9.24e-05 ± 1.2e-05 | 2.94e-05 ± 1.3e-05 | 8.65e-05 ± 2.1e-05 | 7.98e-05 ± 1.3e-05 | 1050 ± 490 | – | – |
| U31C G41C | 4.88e-05 ± 2e-05 | – | – | – | – | – | – |

| Variant | kcat [1] [s⁻¹] | self-cleavage kobs at 640 uM GlcN6P [2] [s⁻¹] | self-cleavage kobs at 2500 uM GlcN6P [3] [s⁻¹] | self-cleavage kobs at 10000 uM GlcN6P [4] [s⁻¹] | KM [5] [µM] | self-cleavage kobs at 40 uM GlcN6P [6] [s⁻¹] | self-cleavage kobs at 160 uM GlcN6P [7] [s⁻¹] |
| --- | --- | --- | --- | --- | --- | --- | --- |
| G29A C50A | 1.1e-05 ± 3.2e-06 | – | – | – | – | – | – |
| G59A C71G | < 1e-05 | – | – | – | – | < 1e-05 | – |
| A6U C68U | 8.73e-05 ± 5.1e-06 | 4.75e-05 ± 8.3e-06 | 8.07e-05 ± 9e-06 | 8e-05 ± 7.3e-06 | 491 ± 140 | – | – |
| U30A G40A | 0.0022 ± 0.0011 | 0.000134 ± 5.6e-05 | 0.000927 ± 0.0002 | 0.0014 ± 0.00025 | – | 4.53e-05 ± 1.6e-05 | 7.47e-05 ± 1.6e-05 |
| G7A G62U | < 1e-05 | < 1e-05 | – | < 1e-05 | – | < 1e-05 | – |
| A6G C10U U56A | < 1e-05 | < 1e-05 | – | – | – | < 1e-05 | – |
| C11G C68G | 2.12e-05 ± 7.1e-06 | – | – | – | – | – | – |
| U31G G66U U69G | 4.42e-05 ± 1.3e-05 | – | 6.07e-05 ± 1.6e-05 | – | – | – | 6.31e-05 ± 2.1e-05 |
| G44A U54G | 0.000522 ± 0.00012 | 0.000231 ± 7.3e-05 | 0.000634 ± 0.00013 | 0.000438 ± 6.2e-05 | – | – | – |
| G60A | 2.13e-05 ± 1.7e-06 | < 1e-05 | 2.19e-05 ± 2.6e-06 | 1.98e-05 ± 1.2e-06 | – | < 1e-05 | – |
| G37C A64C | 1.32e-05 ± 3.3e-06 | – | – | < 1e-05 | – | – | – |
| G37A | 0.00564 ± 0.001 | 0.000777 ± 1.7e-05 | 0.00255 ± 7.6e-05 | 0.00419 ± 8.2e-05 | 3540 ± 830 | 7.38e-05 ± 1.4e-06 | 0.000198 ± 7.5e-06 |
| U47C A53C | 0.00196 ± 0.00041 | 0.000497 ± 0.00012 | 0.00163 ± 0.00044 | 0.00173 ± 0.00032 | 1380 ± 440 | 6.18e-05 ± 1.1e-05 | – |
| A6G U56A | 0.000242 ± 1.2e-05 | 4.69e-05 ± 1.4e-05 | 0.000114 ± 2.4e-05 | 0.00019 ± 3.6e-05 | 2780 ± 290 | – | – |
| A14C U30G | 0.00408 ± 0.001 | 0.000417 ± 7.1e-05 | 0.00127 ± 0.00034 | 0.00267 ± 0.00036 | 5380 ± 1800 | 5.32e-05 ± 1.3e-05 | 0.000107 ± 2e-05 |
| A15G C58A | 0.000835 ± 8.2e-05 | 8.63e-05 ± 1e-05 | 0.000303 ± 4e-05 | 0.000537 ± 5.2e-05 | 5240 ± 790 | – | 2.68e-05 ± 1.2e-05 |
| A12U A52C A53U C70G | 1.09e-05 ± 3.5e-06 | – | – | – | – | – | – |
